Laboratory results reported in US20160015814A1, “Fast-acting insulin formulation comprising a substituted anionic compound and a polyanionic compound” (ADOCIA, priority 2014, published 2016).

Experiments:
human insulin = human insulin (Homo sapiens, UniProt P01308); assay: Test of dissolution of human insulin at its isoelectric point; type: physicochemical; conditions: human insulin 100 IU/mL alone, pH 5.3
Text: If an interaction exists between human insulin and the substituted anionic compound, it is then possible to dissolve the human insulin at its isoelectric point. […] The appearance of the solution is documented.

humans = conditions: injected subcutaneously, diabetic patients; cited from earlier work

Chain of human insulin (P01308 25-54 limits assumed): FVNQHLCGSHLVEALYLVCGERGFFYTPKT
Chain of human insulin (P01308 90-110 limits assumed): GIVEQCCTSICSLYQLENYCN

For “Human insulin: Human insulin, tested at 100 IU/mL alone in the dissolution test; isoelectric point 5.3”, the Visual appearance (human insulin) is listed as “Turbid” and the “time to hypoglycemiant effect” value (humans) is listed as 60 min.
